Reference: PMC7094404 (Archives of Biochemistry and Biophysics, 2008)

Key:
[1] = target: SARS-CoV main protease Δ(297–306) (SARS-CoV); assay: AUC
[2] = target: SARS-CoV main protease Δ(298–306) (SARS-CoV); assay: AUC
[3] = target: SARS-CoV main protease Δ(301–306) (SARS-CoV)
[4] = target: SARS-CoV main protease Δ(302–306) (SARS-CoV); assay: AUC
[5] = target: SARS-CoV main protease Δ(303–306) (SARS-CoV)
[6] = target: SARS-CoV main protease Δ(303–306) (SARS-CoV); assay: AUC
[7] = target: SARS-CoV main protease Δ(304–306) (SARS-CoV)
[8] = target: SARS-CoV main protease Δ(304–306) (SARS-CoV); assay: AUC
[9] = target: SARS-CoV main protease Δ(305–306) (SARS-CoV)
[10] = target: SARS-CoV main protease Δ(305–306) (SARS-CoV); assay: AUC
[11] = target: SARS-CoV main protease Δ(306) (SARS-CoV)
[12] = target: SARS-CoV main protease Δ(306) (SARS-CoV); assay: AUC

With “SARS-CoV main protease Δ(297–306) (domain or fragment)” the Kd [1] was 393000 nM and the koff [1] was 123 s⁻¹.

“SARS-CoV main protease Δ(298–306) (domain or fragment)” was tested, and the Kd [2] was 313000 nM and the koff [2] was 36 s⁻¹.

For “SARS-CoV main protease Δ(301–306) (domain or fragment)”, the catalytic constant kcat for the 11-mer peptide ABZ-…-DNP [3] was 0.025 s⁻¹.

Substance “SARS-CoV main protease Δ(302–306) (domain or fragment)” has a koff [4] of 0.01 s⁻¹.

“SARS-CoV main protease Δ(303–306) (domain or fragment)” showed a catalytic constant kcat for the 11-mer peptide ABZ-…-DNP [5] of 0.022 s⁻¹ and a Kd [6] of 340 nM.

Work on “SARS-CoV main protease Δ(304–306) (domain or fragment)” yielded a catalytic constant kcat for the 11-mer peptide ABZ-…-DNP [7] of 0.027 s⁻¹ and a koff [8] of 0.01 s⁻¹.

“SARS-CoV main protease Δ(305–306) (domain or fragment)” gave a catalytic constant kcat for the 11-mer peptide ABZ-…-DNP [9] of 0.039 s⁻¹, a Kd [10] of 80 nM and a koff [10] of 0.14 s⁻¹.

“SARS-CoV main protease Δ(306) (domain or fragment)” was tested, and the catalytic constant kcat for the 11-mer peptide ABZ-…-DNP [11] was 0.043 s⁻¹, the Kd [12] was 100 nM and the koff [12] was 0.6 s⁻¹.
